Assay results: publication doi:10.1101/2024.06.13.598777, “Acetylation of the yeast Hsp40 chaperone protein Ydj1 fine-tunes proteostasis and translational fidelity” (bioRxiv, 2024)
Changes are numbered by the printed parent chain. Names may count otherwise.

B1: His-tagged Ydj1 wild-type, biotinylated (natural protein, yeast, UniProt P25491 1-409, looked up)
chain: MVKETKFYDILGVPVTATDVEIKKAYRKCALKYHPDKNPSEEAAEKFKEASAAYEILSDPEKRDIYDQFGEDGLSGAGGAGGFPGGGFGFGDDIFSQFFGAGGAQRPRGPQRGKDIKHEISASLEELYKGRTAKLALNKQILCKECEGRGGKKGAVKKCTSCNGQGIKFVTRQMGPMIQRFQTECDVCHGTGDIIDPKDRCKSCNGKKVENERKILEVHVEPGMKDGQRIVFKGEADQAPDVIPGDVVFIVSERPHKSFKRDGDDLVYEAEIDLLTAIAGGEFALEHVSGDWLKVGIVPGEVIAPGMRKVIEGKGMPIPKYGGYGNLIIKFTIKFPENHFTSEENLKKLEEILPPRIVPAIPKKATVDECVLADFDPAKYNRTRASRGGANYDSDEEEQGGEGVQCASQ
modifications: biotin (labeled with a 1.5-fold excess of NHS-PEG4-Biotin)
notes: Ydj1, yeast Hsp40; YDJ1 gene PCR amplified from yeast genomic DNA into pRSETA; A fragment lacking the J-domain (delta J) co-purifies with the recombinant protein; also called Ydj1-biotin; HIS-Ydj1; source: E. coli Rosetta (DE3), purified (Ni-sepharose, Superdex 200)
B2: His-tagged Ydj1 K23Q, biotinylated (natural protein, yeast, UniProt P25491 1-409, looked up)
chain: B1 chain with K23Q
modifications: biotin (labeled with a 1.5-fold excess of NHS-PEG4-Biotin)
notes: Ydj1, yeast Hsp40, acetyl-mimic mutant; Same construct as m5 with the mutation; source: E. coli Rosetta (DE3), purified (Ni-sepharose, Superdex 200)
B3: His-tagged Ydj1 K23R, biotinylated (natural protein, yeast, UniProt P25491 1-409, looked up)
chain: B1 chain with K23R
modifications: biotin (labeled with a 1.5-fold excess of NHS-PEG4-Biotin)
notes: Same construct as m5 with the mutation; source: E. coli Rosetta (DE3), purified (Ni-sepharose, Superdex 200)
B4: His-tagged Ydj1 K37R, biotinylated (natural protein, yeast, UniProt P25491 1-409, looked up)
chain: B1 chain with K37R
modifications: biotin (labeled with a 1.5-fold excess of NHS-PEG4-Biotin)
notes: as for B3

These binders were tested against T1, Ssa1 (purified) (yeast, UniProt P10591 1-642) (assay: BLI; Ydj1-biotin (5 ug/ml) on streptavidin biosensors, Ssa1 1 uM in solution, 23 °C, 25 mM Hepes pH 7.5, 50 mM KCl, 2 mM DTT, 5 mM MgCl2, 0.5 mM ATP, 0.02% Tween-20; Octet R4; reference sensor subtracted). Details: both partners purified.
T1 construct: Ssa1, yeast Hsp70; also called Hsp70; source: isolated as previously described [51]
T1 sequence (P10591 whole entry): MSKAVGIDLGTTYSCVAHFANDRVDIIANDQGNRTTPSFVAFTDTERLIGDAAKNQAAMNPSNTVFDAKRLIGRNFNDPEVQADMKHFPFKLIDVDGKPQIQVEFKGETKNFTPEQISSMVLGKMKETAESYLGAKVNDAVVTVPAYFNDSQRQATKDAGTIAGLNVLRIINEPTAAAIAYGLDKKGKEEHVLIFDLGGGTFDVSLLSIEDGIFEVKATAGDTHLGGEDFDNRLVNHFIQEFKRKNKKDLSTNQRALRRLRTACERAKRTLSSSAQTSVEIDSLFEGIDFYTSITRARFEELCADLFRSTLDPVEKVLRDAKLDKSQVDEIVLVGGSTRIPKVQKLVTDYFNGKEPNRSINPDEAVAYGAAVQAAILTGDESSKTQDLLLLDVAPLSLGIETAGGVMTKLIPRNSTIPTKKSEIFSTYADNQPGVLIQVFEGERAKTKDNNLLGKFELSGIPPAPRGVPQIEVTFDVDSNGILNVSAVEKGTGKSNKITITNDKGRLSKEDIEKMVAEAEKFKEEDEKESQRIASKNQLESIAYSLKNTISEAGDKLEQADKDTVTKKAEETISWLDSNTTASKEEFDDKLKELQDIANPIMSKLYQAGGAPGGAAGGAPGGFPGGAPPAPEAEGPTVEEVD

Binding result, binds:
B1
B2
B3
B4
